# Reference: patent publication US20250296971A1, “GASTRIC INHIBITORY PEPTIDE RECEPTOR LIGANDS” (priority 2021, published 2025)
# *1 amine or outer side, *2 acyl side, *3 side chain or, on linkers, in order; H or OH if unused. Where a SMILES comes first, the peptide text is derived from it. Bridges are numbered along the chain shown (N, C = ends). [ ]: non-standard residue; d: D form. The star is where a group is joined. Ttds = 1,13-diamino-4,7,10-trioxatridecan-succinamic acid, NCCCOCCOCCOCCCNC(=O)CCC(=O)*; X3 = O=C(O)CN1CCN(CC(=O)O)CCN(CC(=O)NCCCOCCOCCOCCCN*)CCN(CC(=O)O)CC1; Pro(trans-4-NH2) = O=C([C@@H]1C[C@@H](N[*:3])CN1[*:1])[*:2]; DOTA = O=C(O)CN1CCN(CC(=O)O)CCN(CC(=O)*)CCN(CC(=O)O)CC1; Trp(5-Cl) = N[C@@H](Cc1c[nH]c2ccc(Cl)cc12)C(=O)O; Phe(3,5-Cl2) = N[C@@H](Cc1cc(Cl)cc(Cl)c1)C(=O)O; Pyridine(2,6-diCH2) = c1cc(C[*:1])nc(C[*:2])c1; Trp(6-F) = N[C@@H](Cc1c[nH]c2cc(F)ccc12)C(=O)O; Pro(3S-OH) = O=C(O)[C@H]1NCC[C@@H]1O; mXylylene = c1cc(C[*:1])cc(C[*:2])c1; Hyp = O=C(O)[C@@H]1C[C@@H](O)CN1; Cysteamide = C(CS[*:3])N[*:1]; Suc = O=C(CCC(=O)[*:2])[*:1]; αMeS = C[C@](N)(CO)C(=O)O; Thp = NC1(C(=O)O)CCOCC1; Aib = CC(C)(N)C(=O)O; Sar = CNCC(=O)O
# T1: GIPR (CHO-K1-hGIPR cells) (Homo sapiens, UniProt P48546)
# T1 construct: host or cells: CHO-K1
# T1 sequence (P48546 22-466): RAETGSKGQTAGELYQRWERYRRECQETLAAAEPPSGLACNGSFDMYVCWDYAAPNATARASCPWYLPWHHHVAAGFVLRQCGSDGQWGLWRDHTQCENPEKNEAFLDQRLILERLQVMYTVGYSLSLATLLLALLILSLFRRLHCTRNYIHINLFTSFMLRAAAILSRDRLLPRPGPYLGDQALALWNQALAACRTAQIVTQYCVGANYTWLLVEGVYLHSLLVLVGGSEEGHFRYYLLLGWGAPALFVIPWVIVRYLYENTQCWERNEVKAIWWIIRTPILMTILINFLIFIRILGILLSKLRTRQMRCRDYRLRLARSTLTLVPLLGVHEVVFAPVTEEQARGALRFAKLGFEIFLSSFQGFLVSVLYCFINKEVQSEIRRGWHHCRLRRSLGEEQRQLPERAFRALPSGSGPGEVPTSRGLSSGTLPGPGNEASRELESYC
# B1: DOTA-Ttds-Asp-Trp-5Clw-Pro-Glu-leu-[Cys(3MeBn)-Ams-Leu-Ile-AET] (peptide)
# peptide: {DOTA-Ttds}-DW[Trp(5-Cl)]PE[dL]C[αMeS]LI[Cysteamide]
# modifications: linker (positions not given here) via mXylylene; not fully specified (bridges); printed as DOTA-Ttds-Asp-Trp-5Clw-Pro-Glu-leu-[Cys(3MeBn)-Ams-Leu-Ile-AET]
# B2: DOTA-Ttds-Asp-6Fw-5Clw-Pro-Glu-leu-[Cys(3MeBn)-Aib-Leu-Ile-AET] (peptide)
# peptide: {DOTA-Ttds}-D[Trp(6-F)][Trp(5-Cl)]PE[dL]C[Aib]LI[Cysteamide]
# modifications: linker 7-11 via mXylylene
# B3: DOTA-Ttds-Asp-Trp-5Clw-Nmg-Glu-leu-[Cys(3MeBn)-Aib-Leu-Ile-AET] (peptide)
# peptide: {DOTA-Ttds}-DW[Trp(5-Cl)][Sar]E[dL]C[Aib]LI[Cysteamide]
# modifications: linker (positions not given here) via mXylylene; not fully specified (bridges); printed as DOTA-Ttds-Asp-Trp-5Clw-Nmg-Glu-leu-[Cys(3MeBn)-Aib-Leu-Ile-AET]
# B4: DOTA-Ttds-Asp-Trp-5Clw-H3p-Glu-leu-[Cys(3MeBn)-Aib-Leu-Ile-AET] (peptide)
# peptide: {DOTA-Ttds}-DW[Trp(5-Cl)][Pro(3S-OH)]E[dL]C[Aib]LI[Cysteamide]
# modifications: linker 7-11 via mXylylene
# Biological target: T1, GIPR (CHO-K1-hGIPR cells)
# Experiment: FACS binding assay
# Conditions: competition with 20 nM GIP-057, 4° C. for 1 hour, read-out: pIC50 Category (converted)
# How it was run: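 Median fluorescence in the APC channel, measured on washed CHO-K1 cells overexpressing human GIPR, was fitted by four-parameter logistic regression against peptide concentration to yield EC50 or IC50 values. Secondary labelling used APC-streptavidin (1 μg/mL, 30 min, ice).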
row,IC50 [nM],Molecule
1,10 to 79.4,"CC[C@H](C)[C@@H]1NC(=O)[C@H](CC(C)C)NC(=O)C2(CCOCC2)NC(=O)[C@@H](NC(=O)[C@@H](CC(C)C)NC(=O)[C@H](CCC(=O)O)NC(=O)[C@@H]2C[C@@H](O)CN2C(=O)[C@H](Cc2cc(Cl)cc(Cl)c2)NC(=O)[C@H](Cc2c[nH]c3ccccc23)NC(=O)[C@H](CC(=O)O)NC(=O)CCC(=O)NCCCOCCOCCOCCCNC(=O)CN2CCN(CC(=O)O)CCN(CC(=O)O)CCN(CC(=O)O)CC2)CSCc2cccc(n2)CSC[C@@H](C(N)=O)NC1=O [GIP-401, DOTA-Ttds-Asp-Trp-Egn-Hyp-Glu-leu-[Cys(2Lut)-Thp-Leu-Ile-Cys]-NH2] ({X3-Suc}-DW[Phe(3,5-Cl2)][Hyp]E[dL]C[Thp]LIC-NH2; linker 7-11 via Pyridine(2,6-diCH2))"
2,10 to 79.4,"CC[C@H](C)[C@@H]1NC(=O)[C@H](CC(C)C)NC(=O)C2(CCOCC2)NC(=O)[C@@H](NC(=O)[C@@H](CC(C)C)NC(=O)[C@H](CCC(=O)O)NC(=O)[C@@H]2C[C@@H](NC(=O)CN3CCN(CC(=O)O)CCN(CC(=O)O)CCN(CC(=O)O)CC3)CN2C(=O)[C@H](Cc2cc(Cl)cc(Cl)c2)NC(=O)[C@H](Cc2c[nH]c3ccccc23)NC(=O)[C@H](CC(=O)O)NC(C)=O)CSCc2cccc(n2)CSC[C@@H](C(N)=O)NC1=O [GIP-402, Ac-Asp-Trp-Egn-Tap(DOTA)-Glu-leu-[Cys(2Lut)-Thp-Leu-Ile-Cys]-NH2] (Ac-DW[Phe(3,5-Cl2)][Pro(trans-4-NH2)](DOTA)E[dL]C[Thp]LIC-NH2; linker 7-11 via Pyridine(2,6-diCH2))"

# Same assay, conditions: competition with 20 nM GIP-057, 4° C., 1 hour
row,pIC50 Category,Molecule
1,B (pIC50 values between 7.1 and 8.0),HO-Succinyl-Trp-5Clw-Hyp-Glu-leu-[Cys(2Lut)-Apc(MeO2kDaPEGAc)-Leu-Ile-Cys]-APAc-Lys(DOTA)-NH2 [GIP-143]
2,B (pIC50 values between 7.1 and 8.0),HO-Succinyl-Trp-5Clw-Hyp-Glu-leu-[Cys(2Lut)-Thp-Leu-Ile-Cys]-APAc-lys(MeO2kDaPEGAc)-Lys(DOTA)-NH2 [GIP-144]
3,A (pIC50 values>8.0),MeO2kDaPEGAc-Asp-Trp-5Clw-Hyp-Glu-leu-[Cys(2Lut)-Thp-Leu-Ile-Cys]-lys(DOTA)-NH2 [GIP-120]

# Biological target: human Gastric Inhibitory Peptide Receptor (human) (UniProt P48546)
# Experiment: FACS competition with GIP-057 on CHO-K1-hGIPR cells; pIC50 category A: >8.0
# Conditions: not given
row,pIC50 [pic50],Molecule
1,> 8,Ac-Cya-Trp-5Clw-Hyp-Glu-leu-[Cys(2Lut)-Thp-Leu-Ile-Cys]-NH2 (peptide)
2,> 8,DOTA-APAc-Asp-Trp-5Clw-Hyp-Glu-leu-[Cys(2Lut)-Apc(AGLU-Glutar)-Leu-Ile-Cys]-APAc-glu(AGLU)-NH2 (peptide)
3,> 8,DOTA-Asp-Trp-5Clw-Hyp-Glu-leu-[Cys(2Lut)-Thp-Leu-Ile-Cys]-NH2 (peptide)
4,> 8,B1
5,> 8,B2
6,> 8,B3
7,> 8,B4
